# According to publication PMC8778164, “Towards Complete Tumor Resection: Novel Dual-Modality Probes for Improved Image-Guided Surgery of GRPR-Expressing Prostate Cancer” (Pharmaceutics, 2022):
# Where two headings read alike, the source gives them in different places.
# Legend:
# [1] = Ex vivo optical (fluorescence, IVIS) imaging of organs; assay type: in vivo, mouse; conditions: male, Balb/c nu/nu, mouse, iv, ex vivo radiant efficiency
# Protocol: (§1) Seven-week-old male Balb/c nu/nu-specific and opportunistic pathogen-free (SOPF) mice (Janvier Labs, Le Genest-Saint-Isle, France) were housed in individually ventilated cages, with 4 mice per cage. Upon arrival, mice were acclimated for 1 week, with access to food and water ad libitum. Mice were subcutaneously inoculated on the right shoulder with PC-3 cells (5 × 10^6 cells suspended in 100 µL of 1/3 Matrigel (Corning Inc., Corning, NY, USA) and 2/3 Hank’s balanced salt solution (Gibco). PC-3 xenografts were allowed to grow for 3 weeks. Tumor sizes were 391 ± 173 mm^3 at the start of the studies. All animal experiments were approved by the Animal Welfare Committee of the Erasmus MC and were conducted in agreement with institutional guidelines (license number: AVD101002017867, 28 September 2017).
# (§2) Before gamma counter measurements, the tumor half, pancreas, kidneys, lungs, small intestine, large intestine, liver, muscle, and bone were placed in two petri dishes and ex vivo optical imaging was performed with the IVIS Spectrum system (Perkin Elmer, Waltham, MA, USA) using the following settings for all measurements: FOV 12.6 cm, medium binning, f2, 0.5 s exposure with an excitation/emission filter of 640 nm/680 nm. Living Image version 4.5.2 software (Perkin Elmer) was used to perform data analysis by drawing a region of interest around the organ/tissue to quantify the radiant efficiency {(photons/second/cm^2/steradian)/(μW/cm^2)}.
# [2] = tested on: PC-3-xenograft Balb/c nu/nu mice; assay: as above; assay type: in vivo, mouse; conditions: ex vivo after dissection, ex/em 640/680 nm
# Protocol: as §1, §2
# [3] = Distribution coefficient (LogD7.4), shake-flask method; assay type: physicochemical; conditions: n-octanol/PBS pH 7.4, n = 3; read-out: Log D7.4
# Protocol: Distribution coefficients (LogD7.4) for the ^111In-labeled compounds were determined by a shake-flask method. The experiments were performed in triplicate for each radioligand. A sample containing the radioligand (0.5–2.0 MBq) was dissolved in 1 mL solution of phosphate-buffered saline (0.01 M, pH 7.4) and n-octanol (v:v = 1:1). The vials were vortexed vigorously and then centrifuged at 10,000 rpm for 3 min, for phase separation. Samples (10 μL) of each phase were taken out and analyzed using a gamma counter. LogD7.4 values were calculated, using the following equation: LogD7.4 = log {(counts in n-octanol phase)/(counts in PBS phase)}.
# [4] = Ex vivo biodistribution after SPECT/CT scanning; assay type: in vivo, mouse; conditions: mouse, iv, ~3 h p.i.; for tissue to tissue ratio: male, Balb/c nu/nu, total radioactivity, radioactivity; for tissue uptake at 3 h: PC-3 xenograft mice, i.v.
# Protocol: as §1
# To determine the biodistribution of the compounds after imaging (~3 h p.i.), blood was collected via cardiac puncture under isoflurane/O2 anesthesia, after which the mice were sacrificed. The tumor and organs of interest (prostate, pancreas, spleen, liver, GI tract (stomach, small intestine, cecum, large intestine), kidneys, lungs, heart, muscle, bone, and brain) were excised, washed in PBS and blotted dry. The stomach, intestines and cecum were emptied of their contents. The tumor was cut in half; one half was fresh-frozen for further analysis and the other half was collected for ex vivo optical imaging and radioactivity measurements. After imaging, the blood, tumor, and relevant organs were weighed and measured in a γ-counter. To determine the total injected radioactivity per animal, samples of the injected solutions were measured as well. The percentage of injected dose per gram (%ID/g) was determined for each tissue sample and corrected for both the injected volume and %ID present at the injection site (the tail). Because the low weight of the prostate limited accurate organ weight measurements, the average prostate weight of all animals was used.
# [5] = blocked with 150 nmol unlabeled NeoB, n = 1
# [6] = non-blocked, n = 3, listed as [111In]In‐12
compound,measurement,setting,value
"CC(C)CC(CC(C)C)NC(=O)[C@H](Cc1c[nH]cn1)NC(=O)CNC(=O)[C@@H](NC(=O)[C@H](C)NC(=O)[C@H](Cc1c[nH]c2ccccc12)NC(=O)[C@H](CCC(N)=O)NC(=O)[C@@H](Cc1ccccc1)NC(=O)COCC(=O)Nc1ccc(CNC(=O)[C@H](CCCCNC(=O)CCOCCOCCOCCOCCNC(=O)OC2CCCC3C=NN=C(c4ccc(CNC(=O)CCCCC[N+]5=C(/C=C/C=C/C=C6N(C)c7ccc(S(=O)(=O)O)cc7C6(C)C)C(C)(C)c6cc(S(=O)(=O)[O-])ccc65)cc4)C3CC2)NC(=O)CN2CCN(CC(=O)O)CCN(CC(=O)O)CCN(CC(=O)O)CC2)cc1)C(C)C (some centres unmarked) [[^111In]In-12, metal not drawn]",tissue to tissue ratio,"[1]; tumor and kidney, blocked with 150 nmol unlabeled NeoB, n = 1, read-out: Tumor-to-kidney ratio (fluorescence)",0.31
same,tissue to tissue ratio,"[1]; tumor and kidney, non-blocked, n = 3, read-out: Tumor-to-kidney ratio (fluorescence)",0.47 ± 0.16
same,tissue to tissue ratio,"[1]; tumor and liver, blocked with 150 nmol unlabeled NeoB, n = 1, read-out: Tumor-to-liver ratio (fluorescence)",0.69
same,tissue to tissue ratio,"[1]; tumor and liver, non-blocked, n = 3, read-out: Tumor-to-liver ratio (fluorescence)",1.96 ± 0.47
same,tissue to tissue ratio,"[1]; tumor and muscle, blocked with 150 nmol unlabeled NeoB, n = 1, read-out: Tumor-to-muscle ratio (fluorescence)",2.21
same,tissue to tissue ratio,"[1]; tumor and muscle, non-blocked, n = 3, read-out: Tumor-to-muscle ratio (fluorescence)",5.69 ± 1.94
same,tissue to tissue ratio,"[1]; tumor and pancreas, blocked with 150 nmol unlabeled NeoB, n = 1, read-out: Tumor-to-pancreas ratio (fluorescence)",2.54
same,tissue to tissue ratio,"[1]; tumor and pancreas, non-blocked, n = 3, read-out: Tumor-to-pancreas ratio (fluorescence)",0.69 ± 0.22
same,"Fluorescent signal, bone (average radiant efficiency)",[2]; [5],0.32 × 10^8 p/sec/cm^2/sr per µW/cm
same,"Fluorescent signal, kidneys (average radiant efficiency)",[2]; [5],5.42 × 10^8 p/sec/cm^2/sr per µW/cm
same,"Fluorescent signal, large intestine (average radiant efficiency)",[2]; [5],0.47 × 10^8 p/sec/cm^2/sr per µW/cm
same,"Fluorescent signal, liver (average radiant efficiency)",[2]; [5],2.42 × 10^8 p/sec/cm^2/sr per µW/cm
same,"Fluorescent signal, lungs (average radiant efficiency)",[2]; [5],2.88 × 10^8 p/sec/cm^2/sr per µW/cm
same,"Fluorescent signal, muscle (average radiant efficiency)",[2]; [5],0.76 × 10^8 p/sec/cm^2/sr per µW/cm
same,"Fluorescent signal, pancreas (average radiant efficiency)",[2]; [5],0.66 × 10^8 p/sec/cm^2/sr per µW/cm
same,"Fluorescent signal, small intestine (average radiant efficiency)",[2]; [5],0.44 × 10^8 p/sec/cm^2/sr per µW/cm
same,"Fluorescent signal, tumor (average radiant efficiency)",[2]; [5],1.67 × 10^8 p/sec/cm^2/sr per µW/cm
same,"Fluorescent signal, bone (average radiant efficiency)","[2]; non-blocked, n = 3",0.40 ± 0.11 × 10^8 p/sec/cm^2/sr per µW/cm
same,"Fluorescent signal, kidneys (average radiant efficiency)","[2]; non-blocked, n = 3",9.41 ± 0.92 × 10^8 p/sec/cm^2/sr per µW/cm^2
same,"Fluorescent signal, large intestine (average radiant efficiency)","[2]; non-blocked, n = 3",0.68 ± 0.19 × 10^8 p/sec/cm^2/sr per µW/cm
same,"Fluorescent signal, liver (average radiant efficiency)","[2]; non-blocked, n = 3",2.20 ± 0.09 × 10^8 p/sec/cm^2/sr per µW/cm
same,"Fluorescent signal, lungs (average radiant efficiency)","[2]; non-blocked, n = 3",1.93 ± 0.18 × 10^8 p/sec/cm^2/sr per µW/cm
same,"Fluorescent signal, muscle (average radiant efficiency)","[2]; non-blocked, n = 3",0.78 ± 0.08 × 10^8 p/sec/cm^2/sr per µW/cm
same,"Fluorescent signal, pancreas (average radiant efficiency)","[2]; non-blocked, n = 3",6.32 ± 0.50 × 10^8 p/sec/cm^2/sr per µW/cm^2
same,"Fluorescent signal, small intestine (average radiant efficiency)","[2]; non-blocked, n = 3",0.85 ± 0.30 × 10^8 p/sec/cm^2/sr per µW/cm
same,"Fluorescent signal, tumor (average radiant efficiency)","[2]; non-blocked, n = 3",4.31 ± 1.03 × 10^8 p/sec/cm^2/sr per µW/cm^2
same,"Fluorescent signal, kidneys (average radiant efficiency)",[2]; [6],9.41 ± 0.92 × 10^8 p/sec/cm^2/sr per µW/cm
same,"Fluorescent signal, pancreas (average radiant efficiency)",[2]; [6],6.32 ± 0.50 × 10^8 p/sec/cm^2/sr per µW/cm
same,"Fluorescent signal, tumor (average radiant efficiency)",[2]; [6],4.31 ± 1.03 × 10^8 p/sec/cm^2/sr per µW/cm
same,logD,[3],-1.66 ± 0.01
same,tissue to tissue ratio,"[4]; tumor and blood, non-blocked, n = 3, read-out: Tumor-to-blood ratio",1.09 ± 0.15
same,tissue to tissue ratio,"[4]; tumor and kidney, blocked with 150 nmol unlabeled NeoB, n = 1, read-out: Tumor-to-kidney ratio",0.16
same,tissue to tissue ratio,"[4]; tumor and kidney, non-blocked, n = 3, read-out: Tumor-to-kidney ratio",0.34 ± 0.05
same,tissue to tissue ratio,"[4]; tumor and liver, blocked with 150 nmol unlabeled NeoB, n = 1, read-out: Tumor-to-liver ratio",0.14
same,tissue to tissue ratio,"[4]; tumor and liver, non-blocked, n = 3, read-out: Tumor-to-liver ratio",0.55 ± 0.04
same,tissue to tissue ratio,"[4]; tumor and muscle, blocked with 150 nmol unlabeled NeoB, n = 1, read-out: Tumor-to-muscle ratio",2.62
same,tissue to tissue ratio,"[4]; tumor and muscle, non-blocked, n = 3, read-out: Tumor-to-muscle ratio",9.04 ± 1.74
same,tissue to tissue ratio,"[4]; tumor and pancreas, blocked with 150 nmol unlabeled NeoB, n = 1, read-out: Tumor-to-pancreas ratio",2.16
same,tissue to tissue ratio,"[4]; tumor and pancreas, non-blocked, n = 3, read-out: Tumor-to-pancreas ratio",0.51 ± 0.03
same,tissue uptake at 3 h,"[4]; blood, blocked with 150 nmol unlabeled NeoB, n = 1, read-out: Blood uptake",7.31 %ID/g
same,tissue uptake at 3 h,"[4]; blood, non-blocked, n = 3, read-out: Blood uptake",7.83 ± 0.84 %ID/g
same,tissue uptake at 3 h,"[4]; bone, blocked with 150 nmol unlabeled NeoB, n = 1, read-out: Bone uptake",1.87 %ID/g
same,tissue uptake at 3 h,"[4]; bone, non-blocked, n = 3, read-out: Bone uptake",2.03 ± 0.89 %ID/g
same,tissue uptake at 3 h,"[4]; brain, blocked with 150 nmol unlabeled NeoB, n = 1, read-out: Brain uptake",0.2 %ID/g
same,tissue uptake at 3 h,"[4]; brain, non-blocked, n = 3, read-out: Brain uptake",0.2 ± 0.03 %ID/g
same,tissue uptake at 3 h,"[4]; cecum, blocked with 150 nmol unlabeled NeoB, n = 1, read-out: Cecum uptake",2.35 %ID/g
same,tissue uptake at 3 h,"[4]; cecum, non-blocked, n = 3, read-out: Cecum uptake",3.73 ± 0.4 %ID/g
same,tissue uptake at 3 h,"[4]; heart, blocked with 150 nmol unlabeled NeoB, n = 1, read-out: Heart uptake",2.24 %ID/g
same,tissue uptake at 3 h,"[4]; heart, non-blocked, n = 3, read-out: Heart uptake",2.39 ± 0.23 %ID/g
same,tissue uptake at 3 h,"[4]; kidneys, blocked with 150 nmol unlabeled NeoB, n = 1, read-out: Kidneys uptake",17.1 %ID/g
same,tissue uptake at 3 h,"[4]; kidneys, non-blocked, n = 3, read-out: Kidneys uptake",24.9 ± 2.78 %ID/g
same,tissue uptake at 3 h,"[4]; large intestine, blocked with 150 nmol unlabeled NeoB, n = 1, read-out: Large intestine uptake",2.06 %ID/g
same,tissue uptake at 3 h,"[4]; large intestine, non-blocked, n = 3, read-out: Large intestine uptake",3.88 ± 0.4 %ID/g
same,tissue uptake at 3 h,"[4]; liver, blocked with 150 nmol unlabeled NeoB, n = 1, read-out: Liver uptake",20 %ID/g
same,tissue uptake at 3 h,"[4]; liver, non-blocked, n = 3, read-out: Liver uptake",15.3 ± 0.43 %ID/g
same,tissue uptake at 3 h,"[4]; lungs, blocked with 150 nmol unlabeled NeoB, n = 1, read-out: Lungs uptake",16.1 %ID/g
same,tissue uptake at 3 h,"[4]; lungs, non-blocked, n = 3, read-out: Lungs uptake",6.51 ± 1.15 %ID/g
same,tissue uptake at 3 h,"[4]; muscle, blocked with 150 nmol unlabeled NeoB, n = 1, read-out: Muscle uptake",1.04 %ID/g
same,tissue uptake at 3 h,"[4]; muscle, non-blocked, n = 3, read-out: Muscle uptake",0.96 ± 0.16 %ID/g
same,tissue uptake at 3 h,"[4]; pancreas, blocked with 150 nmol unlabeled NeoB, n = 1, read-out: Pancreas uptake",1.26 %ID/g
same,tissue uptake at 3 h,"[4]; pancreas, non-blocked, n = 3, read-out: Pancreas uptake",16.6 ± 1.41 %ID/g
same,tissue uptake at 3 h,"[4]; prostate, blocked with 150 nmol unlabeled NeoB, n = 1, read-out: Prostate uptake",4.36 %ID/g
same,tissue uptake at 3 h,"[4]; prostate, non-blocked, n = 3, read-out: Prostate uptake",3.56 ± 1.62 %ID/g
same,tissue uptake at 3 h,"[4]; small intestine, blocked with 150 nmol unlabeled NeoB, n = 1, read-out: Small intestine uptake",1.45 %ID/g
same,tissue uptake at 3 h,"[4]; small intestine, non-blocked, n = 3, read-out: Small intestine uptake",4.4 ± 2.45 %ID/g
same,tissue uptake at 3 h,"[4]; spleen, blocked with 150 nmol unlabeled NeoB, n = 1, read-out: Spleen uptake",3.32 %ID/g
same,tissue uptake at 3 h,"[4]; spleen, non-blocked, n = 3, read-out: Spleen uptake",4.11 ± 0.94 %ID/g
same,tissue uptake at 3 h,"[4]; stomach, blocked with 150 nmol unlabeled NeoB, n = 1, read-out: Stomach uptake",3.12 %ID/g
same,tissue uptake at 3 h,"[4]; stomach, non-blocked, n = 3, read-out: Stomach uptake",3.22 ± 0.54 %ID/g
same,tissue uptake at 3 h,"[4]; tumor, blocked with 150 nmol unlabeled NeoB, n = 1, read-out: Tumor uptake",2.72 %ID/g
same,tissue uptake at 3 h,"[4]; tumor, non-blocked, n = 3, read-out: Tumor uptake",8.47 ± 0.46 %ID/g
